Several values for one entry are separate records, joined by “and”; a condition that tells them apart may be missing. Equal entries are not always repeated. Each block holds one compound with its values, some of them ahead of it. Positions of bridges follow the written chain, without caps; N, C: chain ends. Residues, ends and D or L forms follow the SMILES beside them. No end group written: not given here.
What was measured:
PaAP [1] = test system: PaAP; parameters: method as in PMID 30894675; details: impacted the activity of PaAP in vivo; cited from earlier work
PaAP_T [2] = molecular target: T1, PaAP_T (Pseudomonas aeruginosa, UniProt Q02PA2); test: Enzymatic assay with amino acid-pNA substrates (kcat, KM); type: biochemical; details: amino acid–pNA substrate
T1 construct: PaAP (WT, residues 27–536); His6 (TEV cleavable) (N, cleaved yes); made in house; host or cells: E. coli SHuffle T7
Experimental: (§1) Aminopeptidase activity was determined spectrophotometrically primarily using amino Leu-pNA. Other commercially available pNA substrates (isoleucine, methionine, alanine, valine, proline, arginine, lysine and phenylalanine) were also assayed. Leu-pNA was incubated with enzyme (100 nM) in assay buffer (50 mM Tris, pH 8.5, 200 mM NaCl) at 25 °C. A pNA release caused an absorbance increase at 405 nm, monitored using a BMG Labtech plate reader. […] Data were plotted in GraphPad Prism (version 9) and the Michalis Menten equation was used for fitting.

[3] = molecular target: T2, PaAP_T (P. aeruginosa aminopeptidase, C-terminal truncated) (Pseudomonas aeruginosa, UniProt Q02PA2); test: Inhibition of PaAP_T in the Leu-pNA aminopeptidase assay (KI, IC50); type: biochemical
T2 construct: PaAP (WT, residues 27–536); His6 (TEV cleavable) (N, cleaved yes); made in house; host or cells: E. coli SHuffle T7
Experimental: as §1
(§2) Inhibition assays were carried out with the following peptides: linear-ERWGHDFIK (PaAP C-terminal residues), cyclic-ERWGHDFIK, N-acetylated and C-amidated ERWGHDFIK. IC50 values were determined by varying peptide concentration at a fixed substrate concentration (fixed at KM, (S) = 2 mM, PaAP concentration was 100 nM). […] KI values were determined by fitting the data to equation (1) (Morrison’s equation):1 v=1−Et+I+KI−Et+I+KI^2−4EtIKI/2Et where v is the velocity, Et is the total enzyme concentration, I is the concentration of inhibitor and KI is the equilibrium dissociation constant for the inhibitor. IC50 values increased when measured at increasing S, consistent with competitive inhibition.

in vitro = in vitro ADME, Pseudomonas aeruginosa; details: cells or culture medium; after 48 h growth; read-out: peptide remaining in solution
Experimental: Supplementary Figure 19. Stability of cyclic-ERWGHDFIK
The stability of cyclic-ERWGHDFIK was tested by incubating in LB media +/- inoculation with PA14 Pseudomonas aeruginosa. Samples were taken at set timepoints over a 48 hour time period, quenched and analysed by LC-MS. % of cyclic-ERWGHDFIK remaining was calculated by comparing integrated peak areas to the 0 time point. n=1 […]
(1 picture or pasted object on this page, not shown here)

PaAP [4] = test: PaAP in reaction buffer (50 mM Tris, pH 8.5, 100 mM NaCl); details: P. aeruginosa, room temperature, up to overnight
[5] = molecular target: T3, PaAP_T (P. aeruginosa aminopeptidase, C-terminal truncated) (Pseudomonas aeruginosa, UniProt Q02PA2); test: Inhibition of PaAP_T in the Leu-pNA aminopeptidase assay (KI, IC50); type: biochemical; details: for IC50 plot data (PaAP_T activity at given peptide concentration): (S) = 2 mM, PaAP 100 nM, listed as ERWGHDFIK-NH3
T3 construct: PaAP (WT, residues 27–536); His6 (TEV cleavable) (N, cleaved yes); made in house; host or cells: E. coli SHuffle T7
T3 sequence (Q02PA2 whole entry, looked up): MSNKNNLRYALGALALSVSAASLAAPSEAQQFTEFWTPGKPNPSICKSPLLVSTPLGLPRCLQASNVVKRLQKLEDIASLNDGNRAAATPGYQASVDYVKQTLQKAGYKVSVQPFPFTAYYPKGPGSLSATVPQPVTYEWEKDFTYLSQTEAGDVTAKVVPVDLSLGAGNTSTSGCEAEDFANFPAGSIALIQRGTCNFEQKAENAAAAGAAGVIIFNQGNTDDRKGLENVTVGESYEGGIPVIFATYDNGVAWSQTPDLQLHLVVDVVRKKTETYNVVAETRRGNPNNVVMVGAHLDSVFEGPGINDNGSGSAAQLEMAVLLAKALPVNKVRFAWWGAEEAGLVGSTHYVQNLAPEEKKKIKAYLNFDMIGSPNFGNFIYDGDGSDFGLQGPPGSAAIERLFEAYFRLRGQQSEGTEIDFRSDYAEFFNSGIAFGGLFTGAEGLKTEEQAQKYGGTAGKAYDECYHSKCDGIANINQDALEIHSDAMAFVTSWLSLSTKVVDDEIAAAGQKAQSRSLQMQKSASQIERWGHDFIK
Experimental: as §1, §2

PaAP [6] = molecular target: T4, PaAP (Pseudomonas aeruginosa, UniProt Q02PA2, A513L/Q514V/S515P); test: Peptide digestion assay (overnight and time course, LC-MS/MALDI); type: biochemical; details: for P0 (parent peptide, LC–MS signal): 500 μM peptide, 1 μM PaAP_T, listed as ERWGHDFIK-NH3
T4 construct: PaAP (WT, residues 27–536); His6 (TEV cleavable) (N, cleaved yes); made in house; host or cells: E. coli SHuffle T7
T4 sequence (Q02PA2 37-516 A513L/Q514V/S515P): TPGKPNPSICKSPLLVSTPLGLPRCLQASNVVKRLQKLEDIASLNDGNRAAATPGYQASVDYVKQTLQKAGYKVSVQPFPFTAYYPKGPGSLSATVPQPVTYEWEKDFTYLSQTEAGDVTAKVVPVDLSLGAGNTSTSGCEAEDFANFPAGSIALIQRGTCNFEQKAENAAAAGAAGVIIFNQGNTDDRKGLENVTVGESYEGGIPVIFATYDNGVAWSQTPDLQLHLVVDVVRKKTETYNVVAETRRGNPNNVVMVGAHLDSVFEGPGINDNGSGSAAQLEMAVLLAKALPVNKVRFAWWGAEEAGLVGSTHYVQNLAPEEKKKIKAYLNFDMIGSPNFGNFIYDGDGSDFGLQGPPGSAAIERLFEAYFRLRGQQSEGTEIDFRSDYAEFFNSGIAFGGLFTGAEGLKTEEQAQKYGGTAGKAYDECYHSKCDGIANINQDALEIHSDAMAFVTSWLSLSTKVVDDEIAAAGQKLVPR
Experimental: A variety of peptides of varying lengths and compositions were incubated with PaAP at room temperature. Assays were performed by incubating (overnight at room temperature) 500 μM of substrate (peptides) with 1 μM enzyme (PaAP) in reaction buffer (50 mM Tris, pH 8.5, 100 mM NaCl). The reactions were quenched by heating to 100 °C for 10 min followed by centrifugation at 17,000g in a benchtop centrifuge to remove precipitate. Supernatant was collected and samples were analyzed by LC–MS. Initial trial assays were carried out in the presence and absence (control) of enzyme to determine if the substrate was degraded (single or triplicate experiments). Time-course assays were performed on selected peptide substrates in triplicate. A 300 μl reaction (including 500 μM of substrate) was initiated by the addition of 1 μM enzyme. The reaction was incubated at room temperature. The reaction was quenched at set timepoints by the removal of 30 μl aliquots, which were immediately heated to 100 °C for 10 min. The samples were analyzed by LC–MS using a Xevo Q-ToF (Waters) as described below, searching for masses of all peptide breakdown products.
Peptide degradation time courses were fitted to exponential equations as follows:
P0 peptide consumption was fitted to a single exponential equation (equation (2)) with the format2 yt=y0−Plateaue^−kt+Plateau
Time courses for the formation and decay of peptide intermediates were fitted to double exponential equations (equation (3)) and single exponential equations, followed by a linear phase (4)3 yt=y0−Plateau1e^−k1t+y0−Plateau2e^−k2t+Plateau 4 yt=y0−Plateaue^−kt+vt+Plateau where y(t) is the product formed at time t, y0 − Plateau is the amplitude of the exponential phase, k is the observed rate constant for the exponential phase, y0 is the value of y at time 0, Plateau is the value of y after exponential phase, C is the offset and v is the slope of the linear phase.
Peptide samples incubated in the presence and absence of PaAP were initially analyzed by MALDI. The peptide sample (0.5 µl at 10 µM) was spotted along with matrix (0.5 µl 10 mg ml^−1 α-cyano-4-hydroxycinnamic acid in ACN/0.1% TFA (50/50, vol/vol)) on a stainless steel MALDI plate and left to dry. The sample plate was loaded into a Sciex 4800 MALDI mass spectrometer. The laser voltage was adjusted to give a good signal to noise strength, and 50 shots were acquired in a random pattern across the spot and spectra combined. The spectra were externally calibrated with Sciex Pepcal mix (range: 500–4,000 m/z).

PaAP_T [7] = test: PaAP_T in reaction buffer (50 mM Tris, pH 8.5, 100 mM NaCl), time course; details: P. aeruginosa, room temperature, up to 1220 minutes
PaAP_T [8] = test: reaction buffer (50 mM Tris, pH 8.5, 100 mM NaCl), time-course assay; details: Pseudomonas aeruginosa (recombinant enzyme), room temperature, up to 1220 min

Compound: O=C(O)CCNC(=O)c1ccc(/N=N/c2ccc(O)c(C(=O)O)c2)cc1 [Balsalazide]
- effect on biofilm (PaAP [1]): anti-biofilm phenotype

Compound: CC(C)C[C@H](N)C(=O)Nc1ccc([N+](=O)[O-])cc1 [Leu-pNA]
- kcat (PaAP_T [2]): 689 min⁻¹

Compound: NCCCC[C@H](N)C(=O)Nc1ccc([N+](=O)[O-])cc1 [Lys-pNA]
- kcat (PaAP_T [2]): 248 min⁻¹

Compound: CC(C)[C@H](N)C(=O)Nc1ccc([N+](=O)[O-])cc1 [Val-pNA]
- kcat (PaAP_T [2]): 6.9 min⁻¹

Compound: CC[C@H](C)[C@@H]1NC(=O)[C@H](Cc2ccccc2)NC(=O)[C@H](CC(=O)O)NC(=O)[C@H](Cc2c[nH]cn2)NC(=O)CNC(=O)[C@H](Cc2c[nH]c3ccccc23)NC(=O)[C@H](CCCNC(=N)N)NC(=O)[C@@H](N)CCC(=O)NCCCC[C@@H](C(=O)O)NC1=O [cyclic-ERWGHDFIK] (H-ERWGHDFIK-OH; lactam 1-9)
- Ki [3]: 22.8 nM
- remaining at 48 h (in vitro): > 60%

- not cleaved (PaAP [4]): not a substrate
Compound: Ac-ERWGHDFIK

Compound: ERWGHDFIK-NH2: ERWGHDFIK peptide harboring a C-terminal amide
- IC50 relative to unmodified linear ERWGHDFIK ([5]; Leu-pNA assay): increased IC50 value
- inhibition of PaAP_T ([5]; Leu-pNA assay): very poor inhibitors
- IC50 plot data (PaAP_T activity at given peptide concentration) ([5]; log(I) 0): 100.509 and 101.823 and 100.804
- IC50 plot data (PaAP_T activity at given peptide concentration) ([5]; log(I) 0.39794): 100.885 and 102.922 and 101.877
- IC50 plot data (PaAP_T activity at given peptide concentration) ([5]; log(I) 0.69897): 100.054 and 101.233 and 108.07
- IC50 plot data (PaAP_T activity at given peptide concentration) ([5]; log(I) 1): 99.2493 and 105.174 and 106.059
- IC50 plot data (PaAP_T activity at given peptide concentration) ([5]; log(I) 1.39794): 96.4075 and 101.34 and 94.2091
- IC50 plot data (PaAP_T activity at given peptide concentration) ([5]; log(I) 1.69897): 90.5898 and 93.2172 and 95.2547
- IC50 plot data (PaAP_T activity at given peptide concentration) ([5]; log(I) 2): 71.9303 and 76.8365 and 72.5737
- IC50 plot data (PaAP_T activity at given peptide concentration) ([5]; log(I) 2.39794): 36.7024 and 39.9464 and 37.7748
- IC50 plot data (PaAP_T activity at given peptide concentration) ([5]; log(I) -0.30103): 101.126 and 105.737 and 97.1046
- IC50 plot data (PaAP_T activity at given peptide concentration) ([5]; log(I) -0.60206): 99.866 and 101.85 and 100.456
- IC50 plot data (PaAP_T activity at given peptide concentration) ([5]; log(I) -1): 101.475 and 103.619 and 100.617
- IC50 plot data (PaAP_T activity at given peptide concentration) ([5]; log(I) -1.30103): 101.126 and 99.5174 and 100.483
- substrate of / degraded by PaAP (words) (PaAP [6]; incubated with PaAP overnight, LC–MS or MALDI, listed as ERWEGHDFIK-NH3): good substrate
- P0 (parent peptide, LC–MS signal) (PaAP [6]; time 0 minutes): 747781 and 703178 and 683749
- P0 (parent peptide, LC–MS signal) (PaAP [6]; time 5 minutes): 717720 and 659374 and 657747
- P0 (parent peptide, LC–MS signal) (PaAP [6]; time 10 minutes): 666366 and 611681 and 573626
- P0 (parent peptide, LC–MS signal) (PaAP [6]; time 30 minutes): 456167 and 415831 and 416655
- P0 (parent peptide, LC–MS signal) (PaAP [6]; time 60 minutes): 206401 and 213826 and 168991
- P0 (parent peptide, LC–MS signal) (PaAP [6]; time 90 minutes): 48119.3 and 55308.2 and 38290.8
- P0 (parent peptide, LC–MS signal) (PaAP [6]; time 120 minutes): 7764.71 and 8223.82 and 5808.71
- P0 (parent peptide, LC–MS signal) (PaAP [6]; time 180 minutes): 323.386 and 411.426 and 320.297
- relative rate of degradation by PaAP (PaAP [6]; time-course assay, LC–MS): processed at a faster rate than unmodified ERWGHDFIK

- fragment found (PaAP_T [7]): products from P-5, major
- fragment found (PaAP_T [8]): products from P-5, major
Compound: HCATIPAFDG

Compound: cyclic-ERWGHDFIK cyclized by isopeptide bond
- not cleaved (PaAP [4]): not degraded when incubated overnight with PaAP

Reference: paper PMC10449631 (Nature Chemical Biology, 2023)
